In article PMC12678811:

Tests used:
[1] = molecular target: secretin receptor (SCTR) (mouse (endogenous in mouse jejunal ICC-DMP)) (UniProt Q5FWI2)
[2] = molecular target: secretin receptor (SCTR) (mouse (endogenous in mouse jejunal ICC-DMP)) (UniProt Q5FWI2); remark: listed apart in the source
[3] = molecular target: secretin receptor (SCTR) (mouse (endogenous in mouse jejunal ICC-DMP)) (UniProt Q5FWI2); remark: listed apart in the source

Sequence of UniProt Q5FWI2 (Q5FWI2 29-447): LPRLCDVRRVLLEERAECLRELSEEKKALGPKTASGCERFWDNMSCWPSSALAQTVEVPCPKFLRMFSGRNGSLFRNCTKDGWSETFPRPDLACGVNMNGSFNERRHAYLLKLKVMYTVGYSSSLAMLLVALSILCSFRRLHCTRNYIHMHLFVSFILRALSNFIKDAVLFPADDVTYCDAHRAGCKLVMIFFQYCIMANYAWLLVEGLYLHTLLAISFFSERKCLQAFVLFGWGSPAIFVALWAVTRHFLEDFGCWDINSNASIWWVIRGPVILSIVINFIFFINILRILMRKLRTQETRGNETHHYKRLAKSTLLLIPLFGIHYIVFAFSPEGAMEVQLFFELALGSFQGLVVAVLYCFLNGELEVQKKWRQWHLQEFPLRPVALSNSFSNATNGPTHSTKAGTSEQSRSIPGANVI

HSDGTFTSELSRLREGARLQRLLQGLV [Secretin, human]
cAMP level in ICC-DMP, FRET ratio (mTurquoise/Venus) of the CAMPER sensor, secretin 100 nM [1]: 108 % of control | Ca2+ transients in ICC-DMP (GCaMP6f), area of events, secretin 100 nM with TTX 1 uM [2]: 0.57 μm·s | Ca2+ transients in ICC-DMP (GCaMP6f), spatial spread, secretin 100 nM with TTX 1 uM [2]: 3.1 μm | contractions of murine jejunal muscle strips, amplitude, secretin 100 nM with TTX 1 uM [3]: 53.3 % of control | contractions of murine jejunal muscle strips, area under the curve, secretin 100 nM with TTX 1 uM [3]: 46.4 % of control | spontaneous contractions of murine jejunal muscle strips, area under the curve, secretin 100 nM, control conditions [3]: 45.6 % of control | spontaneous contractions of murine jejunal muscle strips, contractile amplitude, secretin 100 nM, control conditions [3]: 61.3 % of control
